According to patent US20200317769A1 (published 2020):
Residue numbers refer to the chain shown, from its start. In names and notes the source's numbering stands. Like-named read-outs stand apart in the source and are kept apart here.

B1: Q62F11 (VHH, not shown: small tags and cut ends)
VHH: QVQLVESGGGLVQPGGSLRLSCAASGFSFSDYVMGWFRQAPGKEREFVGFIRWDGLVTRYADAVKGRFTISRDNARNTLSLQTIGLLAEDTAVYYCAASGGGSGPVNAGSYEYWGQGTQVTVSS
notes: Neither Family 1 nor Family 2; purified from E. coli
B2: ID22F (VHH)
chain: EVQLVESGGGLVQPGGSLKLSCAASGFDFSSHWMYWVRQAPGKELEWLSEINTNGLITKYGDSVKGRFTVSRNNAANKMYLELTRLEPEDTALYYCARNQKGLNKGQGTQVTVSSGGGGSGGGGSGGGGSGGGGSGGGGSGGGGSEVQLVESGGGLVQPGGSLKLSCAASGFDFSSHWMYWVRQAPGKELEWLSEINTNGLITKYGDSVKGRFTVSRNNAANKMYLELTRLEPEDTALYYCARNQKGLNKGQGTQVTVSS
B3: Q65B1 (VHH, not shown: small tags and cut ends)
VHH: EVQLVESGGGLVQPGGSLKLSCAASGFDFSSHWMYWVRQAPGKELEWLSEINTNGLITKYGDSVKGRFTVSRNNAANKMYLELTRLEPEDTALYYCARNQKGLNKGQGTQVTVSS
notes: Family 1; purified from E. coli; parent of the ID series
B4: ID9F-EV (VHH)
VHH: B3 VHH with K65H
notes: Q65B1 monomer mutant with His-tag; not shown: C-terminal His-tag (c-myc-6His or Flag-6His)
B5: ID13F-EV (VHH)
VHH: B3 VHH with K101H
notes: as for B4
B6: ID15F-EV (VHH)
VHH: B3 VHH with K101H, K105H
notes: as for B4
B7: ID38F (VHH)
VHH: B3 VHH with E1D, K59H, K101H
notes: Q65B1 with N-terminal DVQLV, K59H and K101H; no His-tag; also called ID38F (S. cerevisiae-produced)
B8: ID34F (VHH)
VHH: B3 VHH with K59H, K101H
B9: ID8F-EV (VHH, not shown: small tags and cut ends)
VHH: B3 VHH with K59H
B10: Q65E12 (VHH, not shown: small tags and cut ends)
VHH: EVQLVESGGGLVQPGGSLRLSCSASGFDFSIHWMYWVRQAPGKELEWVAEINTNGLITLYADSVKGRFTASRDNAKNALFLQMNDLKFEDTAVYYCAKSRNGAAGGQGTQVTVSS
notes: Family 2; purified from E. coli
B11: Q65F6 (VHH, not shown: small tags and cut ends)
VHH: B10 VHH with S23T, S30G, A61S, K65R, K76N, G105K
notes: as for B10
B12: Q62F10 (VHH, not shown: small tags and cut ends)
VHH: EVQLVESGGGLVQPGGSLRLSCVASGFDFNIHWMYWVRQAPGKELEWVAEINTNGLITVYPDSVKGRFTISRDNAKNTLFLQMNNLKFEDTAVYYCTNTQNGKTKGQGTQVTVSS
notes: as for B10
B13: Q65C7 (VHH, not shown: small tags and cut ends)
VHH: EVQLVESGGGLVQPGRSLRLSCTASGFDFSSHWMYWVRQAPGKGLEWVSEINTNGLITKYADFVKGRFTVSRDNAANTLYLEITRLEPEDTALYYCARNQKGLNKGQGTQVTVSS
notes: Family 1; purified from E. coli
B14: Q65D1 (VHH, not shown: small tags and cut ends)
VHH: B13 VHH with R16G, S30D, S31N, Y35C, E82Q, E87K
notes: as for B13
B15: Q62F2 (VHH, not shown: small tags and cut ends)
VHH: B13 VHH with E1Q, R16G, T23A, S30N, K59N, A61V, F63S, I83M, R85S, E87K
notes: as for B13
B16: Q65D3 (VHH, not shown: small tags and cut ends)
VHH: B13 VHH with R16G, T23V, F63S, V64T, T78M, Y80N, I83M, R85S, Q100E, K101R
notes: as for B13
B17: Q62E10 (VHH, not shown: small tags and cut ends)
VHH: QVQLVESGGGLVQPGGSLRLSCTTSGLDFGIHWMYWFRQAPGKELEWVAEINTNALITKYADSVKGRFTISRDNAKNTLFLQMNDLKSEDTAVYYCSNTQNGAAKGQGVQVTVSS
notes: as for B10
B18: Q65A3 (VHH, not shown: small tags and cut ends)
VHH: B17 VHH with Q1E, L20P
notes: as for B10

Experiments:
[1] = biological target: T1, soluble human TNF-alpha (human, UniProt P01375 77-233); assay: cell-based or functional assay
T1 sequence (P01375 77-233 limits assumed): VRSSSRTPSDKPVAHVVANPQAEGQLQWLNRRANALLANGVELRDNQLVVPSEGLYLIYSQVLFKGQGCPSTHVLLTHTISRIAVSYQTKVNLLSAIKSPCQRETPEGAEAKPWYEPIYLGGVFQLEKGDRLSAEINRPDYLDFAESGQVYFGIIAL

[2] = biological target: T2, soluble cynomolgus monkey TNF-alpha (cynomolgus monkey, UniProt P79337 77-233); assay: cell-based or functional assay
T2 sequence (P79337 77-233 limits assumed): as the sequence (P01375 77-233 limits assumed) above, with L37V, R44T, T72N, R138L counted along it

[3] = biological target: T2, soluble cynomolgus monkey TNF-alpha; assay: competition ELISA: VHH mixed with cynomolgus TNF-alpha, binding to coated etanercept (TNFR2-Fc)
Procedure: (§1) Variable domains were diluted and mixed with either human or cynomolgus monkey TNF-alpha (1.25 ng/ml) to allow binding before adding to the ELISA plates.

[4] = biological target: T1, soluble human TNF-alpha; assay: competition ELISA: VHH mixed with human TNF-alpha, binding to coated etanercept (TNFR2-Fc)
Procedure: as §1

[5] = biological target: T3, non-cleavable transmembrane form of human TNF-alpha on CHO cells (mTNF-alpha-CHO) (human, UniProt P01375 1-233); assay: cell-based or functional assay
T3 sequence (P01375 whole entry): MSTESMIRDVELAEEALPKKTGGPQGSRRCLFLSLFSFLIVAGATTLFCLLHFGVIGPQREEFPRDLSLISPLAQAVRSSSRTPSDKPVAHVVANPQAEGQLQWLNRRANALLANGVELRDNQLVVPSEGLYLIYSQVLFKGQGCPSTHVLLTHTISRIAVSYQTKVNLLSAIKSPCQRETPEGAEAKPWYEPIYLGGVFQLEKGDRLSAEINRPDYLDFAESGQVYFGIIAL

[6] = biological target: T1, soluble human TNF-alpha; assay: cell-based or functional assay; remark: listed apart in the source
[7] = biological target: T3, non-cleavable transmembrane form of …; assay: cell-based or functional assay; remark: listed apart in the source
[8] = biological target: T1, soluble human TNF-alpha; assay: cell-based or functional assay; remark: listed apart in the source
[9] = biological target: T2, soluble cynomolgus monkey TNF-alpha; assay: cell-based or functional assay; remark: listed apart in the source
[10] = biological target: T3, non-cleavable transmembrane form of …; assay: cell-based or functional assay; remark: listed apart in the source
[11] = biological target: T1, soluble human TNF-alpha; assay: competition ELISA: VHH mixed with h-TNF-alpha, binding to coated etanercept
[12] = biological target: T1, soluble human TNF-alpha; assay: cell-based or functional assay; remark: listed apart in the source
[13] = biological target: T1, soluble human TNF-alpha; assay: competition ELISA: VHH mixed with TNF-alpha 2.5 ng/ml, binding to coated hTNFR1
Procedure: Plate was washed in PBST using a plate washer and blocked for 1 hour in 200 ul 1% BSA per well. A threefold dilution series beginning at 30 nM for each antibody was incubated with 2.5 ng/ml TNF-alpha for 1 hour, 50 ul/well of which was then added to the washed plate and incubated for 5 hours. The plate was washed and incubated with 50 ul/well of a 1/1000 dilution of biotinylated rabbit alpha-hTNF (Peprotech P31AB7) in 1% BSA and incubated overnight at 4 degrees C. The plate was washed and incubated with 50 ul/well of a 1/1000 dilution of mAvidin HRP in 1% BSA for 1 hour before a final wash and incubation with 100 ul/well TMB substrate. The reaction was stopped after 20 minutes with 50 ul/well 0.5 M H2504 and absorbance was read at 450 nm. EC50 values were calculated from ELISA data in GraphPad Prism.

Binder	EC50 [3]	EC50 [4]	Inhibition of human TNF-induced L929 cell cytotoxicity EC50 [8]	Inhibition of cynomolgus TNF-induced L929 cell cytotoxicity EC50 [9]	Inhibition of mTNF-alpha-induced HEK-NF-kB SEAP Reporter (EC50 = nM) [10]	further results
B1	1.4 nM	2.3 nM				Inhibition of human TNF-induced L929 cell cytotoxicity EC50 [1]: 6 nM; Inhibition of cynomolgus TNF-induced L929 cell cytotoxicity EC50 [2]: 1.5 nM; Inhibition of mTNF-alpha-induced HEK-NF-kB SEAP Reporter (EC50 = nM) [5]: 40 nM
B2						potency relative to the monomer, soluble TNF-induced HEK293-NF-kB-SEAP reporter assay [6]: ~10 fold
B3	0.45 nM	0.29 nM	0.04 nM	0.01 nM	10.9 nM	mTNF-alpha neutralisation EC50 (nM), NF-kB/SEAP HEK-293 cellular reporter assay [7]: 8.72 nM; EC50, HEK-293 NF-kB/SEAP reporter cells, human soluble TNF-alpha [6]: ~0.2 nM
B4						binding result [11]: binds
B5						binding result [11]: binds
B6						binding result [11]: binds
B7						EC50 (nM), neutralisation of human soluble TNF-alpha-induced cytotoxicity in L929 cells [12]: 0.127 nM; mTNF-alpha neutralisation EC50 (nM), NF-kB/SEAP HEK-293 cellular reporter assay [7]: 5.16 nM; EC50 [13]: 0.61 nM
B8						mTNF-alpha neutralisation EC50 (nM), NF-kB/SEAP HEK-293 cellular reporter assay [7]: 4.71 nM
B9						mTNF-alpha neutralisation EC50 (nM), NF-kB/SEAP HEK-293 cellular reporter assay [7]: 7.69 nM
B10	65 nM	47 nM	4 nM	4 nM	174 nM	
B11	24 nM	13 nM	1.5 nM	1 nM	110 nM	
B12	108 nM	30 nM				Inhibition of human TNF-induced L929 cell cytotoxicity EC50 [1]: 2 nM; Inhibition of cynomolgus TNF-induced L929 cell cytotoxicity EC50 [2]: 1.3 nM
B13	0.32 nM	0.35 nM	0.15 nM	0.03 nM	14.1 nM	
B14	0.32 nM	0.37 nM	0.1 nM	0.06 nM	15.3 nM	
B15	1.3 nM	0.7 nM				Inhibition of human TNF-induced L929 cell cytotoxicity EC50 [1]: 1 nM; Inhibition of cynomolgus TNF-induced L929 cell cytotoxicity EC50 [2]: 0.8 nM; Inhibition of mTNF-alpha-induced HEK-NF-kB SEAP Reporter (EC50 = nM) [5]: 34 nM
B16	0.45 nM	0.33 nM	0.15 nM	0.1 nM	16 nM	EC50, HEK-293 NF-kB/SEAP reporter cells, human soluble TNF-alpha [6]: ~0.6 nM
B17	1.2 nM	0.8 nM				Inhibition of human TNF-induced L929 cell cytotoxicity EC50 [1]: 0.2 nM; Inhibition of cynomolgus TNF-induced L929 cell cytotoxicity EC50 [2]: < 0.1 nM; Inhibition of mTNF-alpha-induced HEK-NF-kB SEAP Reporter (EC50 = nM) [5]: 80 nM
B18	1.1 nM	1.3 nM	0.15 nM	0.04 nM	23.9 nM	
